This is an account of results in patent US20240358813A1.

Like-named read-outs stand apart in the source and are kept apart here. Bounds are passed on as bounds.

The target of assay [1] is gp42 wild-type (1-223) (Epstein-Barr virus) (UniProt P03205). The assay can be described thus: flow cytometry, stable CHO cells kept in 10 µg/ml puromycin, mAb at 1:200, goat anti-mouse IgG Alexa Fluor 488. (A flow cytometer gives signals particle by particle.)
Assay [2] deals with gp350-F: EBV gp350 (1-864) ectodomain fused to the Newcastle disease virus fusion protein (NDV-F) tr (Epstein-Barr virus; Newcastle disease virus) (UniProt P03200).
The target is the same in assay [3]. Kind of assay: flow cytometry, […], mAb at 1:200, […].
For assay [4] the target is unchanged. The source holds these as a separate data set.

Chain of UniProt P03200 (P03200 1-864): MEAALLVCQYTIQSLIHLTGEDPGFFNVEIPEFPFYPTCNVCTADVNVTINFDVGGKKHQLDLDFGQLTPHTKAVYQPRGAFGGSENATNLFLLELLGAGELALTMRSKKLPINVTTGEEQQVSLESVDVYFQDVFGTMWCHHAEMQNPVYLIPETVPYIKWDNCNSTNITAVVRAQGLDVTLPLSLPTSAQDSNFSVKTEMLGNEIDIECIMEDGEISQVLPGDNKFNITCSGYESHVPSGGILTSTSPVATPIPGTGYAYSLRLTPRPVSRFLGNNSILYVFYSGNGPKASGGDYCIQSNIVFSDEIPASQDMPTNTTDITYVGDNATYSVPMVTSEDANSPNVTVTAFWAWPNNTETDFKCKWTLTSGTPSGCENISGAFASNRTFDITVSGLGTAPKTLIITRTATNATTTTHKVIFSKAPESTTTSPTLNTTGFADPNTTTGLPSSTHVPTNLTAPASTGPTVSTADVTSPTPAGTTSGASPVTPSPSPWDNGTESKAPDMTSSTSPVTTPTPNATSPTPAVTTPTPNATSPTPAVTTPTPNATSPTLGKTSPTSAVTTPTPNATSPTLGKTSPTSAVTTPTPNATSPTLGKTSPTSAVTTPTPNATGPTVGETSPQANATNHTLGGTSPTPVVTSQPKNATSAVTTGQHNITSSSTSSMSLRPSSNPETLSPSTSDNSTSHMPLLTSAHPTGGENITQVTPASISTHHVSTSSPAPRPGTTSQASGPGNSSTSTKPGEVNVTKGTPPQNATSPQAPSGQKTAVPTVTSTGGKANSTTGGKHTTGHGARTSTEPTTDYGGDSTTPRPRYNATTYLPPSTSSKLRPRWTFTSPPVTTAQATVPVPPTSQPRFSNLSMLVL
Chain of UniProt P03205 (P03205 whole entry, the tested form may be a part): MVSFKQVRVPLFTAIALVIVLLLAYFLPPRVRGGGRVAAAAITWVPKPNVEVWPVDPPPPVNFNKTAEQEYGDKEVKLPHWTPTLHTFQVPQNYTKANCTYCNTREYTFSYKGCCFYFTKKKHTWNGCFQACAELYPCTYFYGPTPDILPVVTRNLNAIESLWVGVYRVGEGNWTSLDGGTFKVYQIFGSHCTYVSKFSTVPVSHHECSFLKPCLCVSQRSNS

As to anti-gp42 mAb (F-2-1) (antibody), the percent positive cells in assay [1] was over 90%. “anti-gp350 monoclonal antibody (mAb) 72A1”: the percent positive cells in assay [2] was 95%; in assay [3] it was over 90%. Substance anti-gp350 mAb 2L10 (antibody) came in with a percent positive cells in assay [4] of over 90%.
